According to the supplement of paper PMC10567573:

B1: ESR2 (parent)
chain: KSCQACRLRKCYEVGMVKCGSRRE

Variants of: B1
Experiment: protein stability index of a GFP-peptide fusion (GPS, HEK-293T) (PSI 1-6); higher = more stable
Settings: c terminus: a fixed tail appended
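Also: lentivirally expressed fusions sorted by FACS into six bins by GFP to DsRed ratio, PSI derived from sequencing read proportions per bin multiplied by bin number.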

Protein stability index, by site and new letter:
L8: H 2.4; N 2.74; K 2.66; Q 1.84; I 1.64; G 2.36; C 2.61; E 2.47; M 2.24; W 1.87; T 2.11; D 1.61; P 2.27; R 2.18; S 2.83; A 2.17; V 1.73; Y 2.35; F 2.21
G15: Y 1.81; D 2.19; Q 1.49; H 1.86; R 1.91; K 2.18; T 2.03; P 2.35; I 1.79; A 1.69; V 1.25; C 2.25; S 1.34; E 1.38; L 1.55; N 1.97; F 2.41; M 1.96
M16: V 1.74; D 1.66; T 2.14; I 1.13; E 1.84; S 2.44; R 2.4; K 2.67; H 2.82; P 1.96; W 1.88; G 2; N 2.15; L 2.22; C 3.01; A 1.76; Y 1.85; Q 1.95; F 2.1
Y12: P 2.13; I 1; G 2.36; R 1.9; E 2.85; K 2.11; H 2.03; N 2.43; A 2.9; M 1.41; W 2.24; Q 2.06; V 2.19; T 2.77; D 1.83; F 1.77; S 2.29; L 1.89; C 2.78
R23: A 1.61; D 2.48; C 2.39
K10: T 2.23; N 2.27; R 1.56; E 2.12; P 1.94; L 2.24; W 1.74; H 2.16; S 2.69; Y 1.79; G 1.78; F 1.26; I 1.98; M 1.48; D 1.49; V 1.89; Q 1.68; A 1.81; C 1.5
C11: H 1.74; G 2.4; V 2.47; W 2; L 2.31; M 2.6; P 1.38; N 1.78; Q 1.79; A 1.82; K 2.3; R 2.5; I 2.19; D 2.72; T 2.29; S 1.68; F 2.52; E 1.57
V17: Y 1.78; P 1.82; H 2.97; T 1.98; I 2.21; F 1.94; L 1.61; M 2.37; D 1.6; K 2.54; Q 2.1; W 1.86; A 2.41; G 2.27; N 3.53; C 3.72; R 1.82; S 2.16; E 1.89
G20: P 1.84; Q 1.73; I 2.16; E 2.41; L 1.73; S 1.81; K 2.41; V 1.87; R 2.49; A 1.91; W 1.48; D 1.87; F 2.01; Y 2.15; H 2.75; M 1.73; T 2.19; N 2.12; C 1.95
E13: K 1.99; L 1.64; Y 1.38; G 2.3; A 1.93; P 1.69; C 2.46; I 2.03; F 2.23; H 2.89; Q 1.7; T 1.96; S 2.42; W 1.49; D 1.88; M 1.7; V 1.6; R 1.95; N 1.93
R22: N 1.91; H 1.97; V 1.97; Q 2.04; S 1.91; Y 1.66; A 1.88; I 1.83; M 2.21; K 2.35; F 1.41; T 1.92; W 2.05; P 2.33; L 1.33; D 3.02; G 1.99; E 2.98; C 3.45
C6: F 1.96; P 3.03; E 2.38; A 2.57; R 3.05; T 2.62; L 2.48; G 2.88; Q 2.94; N 2.94; D 2.73; M 2.44; K 3.22; S 2.25; I 2.6; H 2.81; Y 2.28; V 2.42; W 2
R7: A 1.32; Y 2.58; P 2.17; T 2.46; H 1.81; W 1.89; Q 1.66; L 1.74; S 1.89; G 2; I 1.64; N 1.77; K 2.03; D 2.06; M 1.48; V 1.89; F 2.29; E 2.69; C 2.5
A5: Q 2.11; W 1.77; Y 1.64; S 2; M 1.36; R 3.08; T 2.11; N 1.81; P 2.3; V 1.93
V14: E 1.9; H 4.01; P 1.62; N 2.34; W 1.92; M 1.77; K 2.5; Q 2.17; D 2.17; A 2.1; I 1.67; C 2.17; F 1.57; S 2.52; T 1.96; R 2.27; Y 1.7; L 1.49; G 1.94
S21: W 1.5; P 2.29; K 2.39; D 1.75; E 2.25; N 2.57; F 1.5; H 2.65; R 2.09; C 3.46; I 1.69; Y 1.76; M 2.13; V 1.56; L 2.44; G 1.89; A 2.24; T 2.31; Q 1.32
C19: Y 1.43; L 1.89; V 1.89; H 1.94; M 1.9; R 2.52; T 2.81; Q 1.53; K 1.76; A 2.18; W 3.71; S 1.61; E 2.43; G 2.11; N 2.04; P 2.28; D 2.51; F 1.86; I 1.4
R9: L 2.14; H 1.92; K 2.04; P 2.35; G 1.95; Y 2.38; D 1.75; M 1.93; V 2.13; N 1.88; I 1.82; A 1.1; C 1.61; T 2.66; F 2.56; S 1.8; W 1.93; E 2.03; Q 1.99
K18: T 1.82; F 1.51; S 2.85; P 1.72; E 2.09; D 2.2; M 1.67; A 1.89; R 2.31; H 2.33; Y 1.49; L 1.73; I 1.49; C 2.16; N 2.39; V 2.79; G 1.8; Q 1.7; W 1.35
